Assay results as given in patent publication US20250296971A1, “GASTRIC INHIBITORY PEPTIDE RECEPTOR LIGANDS” (priority 2021, published 2025).
*1 amine or outer side, *2 acyl side, *3 side chain or, on linkers, in order; H or OH if unused. Bridges are numbered along the chain shown (N, C = ends). Where no end group is shown, it is not given here. [ ]: non-standard residue; d: D form. The star is where a group is joined. (dE)(AGLU) = D-glutamic acid bearing 1-amino-1-deoxy-D-glucitol; 2,6‑lutidylidene = 2Lut, Cys-Cys crosslink via 2,6-lutidylidene; dE(AGLU) = D-glutamic acid bearing 1-amino-1-deoxy-D-glucitol; Pro(trans-4-NH2) = O=C([C@@H]1C[C@@H](N[*:3])CN1[*:1])[*:2]; DOTA = O=C(O)CN1CCN(CC(=O)O)CCN(CC(=O)*)CCN(CC(=O)O)CC1; NODAGA = O=C(O)CN1CCN(CC(=O)O)CCN(C(CCC(=O)*)C(=O)O)CC1; 2Lut = 2,6-lutidylidene bridge between two thiols; Trp(5-Br) = N[C@@H](Cc1c[nH]c2ccc(Br)cc12)C(=O)O; Trp(5-Cl) = N[C@@H](Cc1c[nH]c2ccc(Cl)cc12)C(=O)O; Pyridine(2,6-diCH2) = c1cc(C[*:1])nc(C[*:2])c1; Pro(trans-4-F) = O=C(O)[C@@H]1C[C@@H](F)CN1; APAc = 4-amino-1-carboxymethylpiperidine; mXylylene = c1cc(C[*:1])cc(C[*:2])c1; Glutaryl = O=C(CCCC(=O)[*:2])[*:1]; PEG6 = NCCOCCOCCOCCOCCOCCOCCC(=O)O; AGLU = 1-amino-1-deoxy-D-glucitol; Hyp = O=C(O)[C@@H]1C[C@@H](O)CN1; dGlu(AGLU) = not defined here; hSer = N[C@@H](CCO)C(=O)O; Ac5c = NC1(C(=O)O)CCCC1; Api = NC1(C(=O)O)CCNCC1; Dab = NCC[C@H](N)C(=O)O; Thp = NC1(C(=O)O)CCOCC1; AEEA = NCCOCCOCC(=O)O; Aib = CC(C)(N)C(=O)O; Nlys = NCCCCNCC(=O)O

B1: DOTA-glu(AGLU)-O2Oc-Asp-Trp-5Clw-Tap-Glu-leu-[Cys(2Lut)-Thp-Leu-Ile-Cys]-APAc-glu(AGLU)-NH2 (peptide)
peptide: {DOTA-dGlu(AGLU)-AEEA}-DW[Trp(5-Cl)][Pro(trans-4-NH2)]E[dL]C[Thp]LIC-{APAc-dGlu(AGLU)-NH2}
modifications: linker 7-11 via 2Lut; reading uncertain
B2: DOTA-O2Oc-glu(AGLU)-Asp-Trp-5Clw-Tap-Glu-leu-[Cys(2Lut)-Thp-Leu-Ile-Cys]-APAc-glu(AGLU)-NH2 (peptide)
peptide: DW[Trp(5-Cl)][Pro(trans-4-NH2)]E[dL]C[Thp]LIC-{APAc-(dE)(AGLU)-NH2}
modifications: linker 7-11 via Pyridine(2,6-diCH2); not fully specified (N-terminus); printed as DOTA-O2Oc-glu(AGLU)-Asp-Trp-5Clw-Tap-Glu-leu-[Cys(2Lut)-Thp-Leu-Ile-Cys]-APAc-glu(AGLU)-NH2
B3: Ac-Asp-Trp-5Clw-4Tfp-Glu-leu-[Cys(2Lut)-Thp-Leu-Ile-Cys]-NH2 (peptide)
peptide: Ac-DW[Trp(5-Cl)][Pro(trans-4-F)]E[dL]C[Thp]LIC-NH2
modifications: linker 7-11 via Pyridine(2,6-diCH2)
B4: HO-Succinyl-Trp-5Clw-Pro-Glu-leu-[Cys(3MeBn)-Aib-Leu-Ile-Cys]-NH2 (peptide)
peptide: W[Trp(5-Cl)]PE[dL]C[Aib]LIC-NH2
modifications: linker 6-10 via mXylylene; not fully specified (N-terminus); printed as HO-Succinyl-Trp-5Clw-Pro-Glu-leu-[Cys(3MeBn)-Aib-Leu-Ile-Cys]-NH2
B5: DOTA-glu(AGLU)-PEG6-Asp-Trp-5Clw-Tap-Glu-leu-[Cys(2Lut)-Thp-Leu-Ile-Cys]-APAc-glu(AGLU)-NH2 (peptide)
peptide: {DOTA-dGlu(AGLU)-PEG6}-DW[Trp(5-Cl)][Pro(trans-4-NH2)]E[dL]C[Thp]LIC-{APAc-dGlu(AGLU)-NH2}
modifications: linker 7-11 via 2Lut; reading uncertain
B6: Ac-Asp-Trp-5Clw-Hyp-Glu-leu-[Cys(2Lut)-Eca-Leu-Ile-Cys]-NH2 (peptide)
peptide: Ac-DW[Trp(5-Cl)][Hyp]E[dL]C[Ac5c]LIC-NH2
modifications: linker 7-11 via Pyridine(2,6-diCH2)
B7: DOTA-glu(AGLU)-Asp-Trp-5Clw-Tap-Glu-leu-[Cys(2Lut)-Thp-Leu-Ile-Cys]-APAc-glu(AGLU)-NH2 (peptide)
peptide: {DOTA-dE(AGLU)}-DW[Trp(5-Cl)][Pro(trans-4-NH2)]E[dL]C[Thp]LIC-{APAc-dE(AGLU)-NH2}
modifications: linker 7-11 via Pyridine(2,6-diCH2)
B8: HO-Succinyl-Trp-5Clw-Pro-Glu-leu-[Cys(3MeBn)-Thp-Leu-Ile-Cys]-NH2 (peptide)
peptide: W[Trp(5-Cl)]PE[dL]C[Thp]LIC-NH2
modifications: linker 6-10 via mXylylene; not fully specified (N-terminus); printed as HO-Succinyl-Trp-5Clw-Pro-Glu-leu-[Cys(3MeBn)-Thp-Leu-Ile-Cys]-NH2
B9: AGLU-Glutar-Hse-Trp-5Brw-Tap-Glu-leu-[Cys(2Lut)-Apc(DOTA)-Leu-Ile-Cys]-APAc-glu(AGLU)-NH2 (peptide)
peptide: {AGLU-Glutaryl}-[hSer]W[Trp(5-Br)][Pro(trans-4-NH2)]E[dL]C[Api](DOTA)LIC-{APAc-dE(AGLU)-NH2}
modifications: linker 7-11 via Pyridine(2,6-diCH2)
B10: AGLU-Glutar-Asp-Trp-5Clw-Tap-Glu-leu-[Cys(2Lut)-Apc(NODAGA)-Leu-Ile-Cys]-APAc-glu(AGLU)-NH2 (peptide)
peptide: {AGLU-Glutaryl}-DW[Trp(5-Cl)][Pro(trans-4-NH2)]E[dL]C[Api](NODAGA)LIC-{APAc-dE(AGLU)-NH2}
modifications: linker 7-11 via Pyridine(2,6-diCH2)
B11: AGLU-Glutar-Asp-Trp-5Clw-Tap-Glu-leu-[Cys(2Lut)-Dab(DOTA)-Leu-Ile-Cys]-APAc-glu(AGLU)-NH2 (peptide)
peptide: {AGLU-Glutaryl}-DW[Trp(5-Cl)][Pro(trans-4-NH2)]E[dL]C[Dab](DOTA)LIC-{APAc-dE(AGLU)-NH2}
modifications: linker 7-11 via Pyridine(2,6-diCH2)
B12: Ac-Asp-Trp-5Clw-Hyp-Glu-leu-[Cys(2Lut)-Thp-Leu-Ile-Cys]-OH (peptide)
peptide: Ac-DW[Trp(5-Cl)][Hyp]E[dL]C[Thp]LIC-OH
modifications: linker 7-11 via Pyridine(2,6-diCH2)
B13: Ac-Asn-Trp-5Clw-Hyp-Glu-leu-[Cys(2Lut)-Thp-Leu-Ile-Cys]-NH2 (peptide)
peptide: Ac-NW[Trp(5-Cl)][Hyp]E[dL]C[Thp]LIC-NH2
modifications: linker 7-11 via Pyridine(2,6-diCH2)
SMILES: CC[C@H](C)[C@@H]1NC(=O)[C@H](CC(C)C)NC(=O)C2(CCOCC2)NC(=O)[C@@H](NC(=O)[C@@H](CC(C)C)NC(=O)[C@H](CCC(=O)O)NC(=O)[C@@H]2C[C@@H](O)CN2C(=O)[C@H](Cc2c[nH]c3ccc(Cl)cc23)NC(=O)[C@H](Cc2c[nH]c3ccccc23)NC(=O)[C@H](CC(N)=O)NC(C)=O)CSCc2cccc(n2)CSC[C@@H](C(N)=O)NC1=O
B14: Ac-Asp-Trp-5Clw-Hyp-Glu-leu-[Cys(2Lut)-Thp-Leu-Ile-Cys]-NH2 (peptide)
peptide: Ac-DW[Trp(5-Cl)][Hyp]E[dL]C[Thp]LIC-NH2
modifications: linker 7-11 via Pyridine(2,6-diCH2)
B15: Ac-Asp-Trp-5Clw-Nlys-Glu-leu-[Cys(2Lut)-Thp-Leu-Ile-Cys]-NH2 (peptide)
peptide: Ac-DW[Trp(5-Cl)][Nlys]E[dL]C[Thp]LIC-NH2
modifications: linker 7-11 via Pyridine(2,6-diCH2)
B16: AGLU-Glutar-Asp-Trp-5Clw-Tap-Glu-leu-[Cys(2Lut)-Lys(DOTA)-Leu-Ile-Cys]-APAc-glu(AGLU)-NH2 (peptide)
peptide: {AGLU-Glutaryl}-DW[Trp(5-Cl)][Pro(trans-4-NH2)]E[dL]CK(DOTA)LIC-{APAc-dE(AGLU)-NH2}
modifications: linker 7-11 via 2,6‑lutidylidene
B17: Ac-Asp-Trp-5Clw-Hyp-Asn-leu-[Cys(2Lut)-Thp-Leu-Ile-Cys]-NH2 (peptide)
peptide: Ac-DW[Trp(5-Cl)][Hyp]N[dL]C[Thp]LIC-NH2
modifications: linker 7-11 via Pyridine(2,6-diCH2)

Biological target: human Gastric Inhibitory Peptide Receptor (human) (UniProt P48546)
Sequence (P48546 22-466 limits assumed): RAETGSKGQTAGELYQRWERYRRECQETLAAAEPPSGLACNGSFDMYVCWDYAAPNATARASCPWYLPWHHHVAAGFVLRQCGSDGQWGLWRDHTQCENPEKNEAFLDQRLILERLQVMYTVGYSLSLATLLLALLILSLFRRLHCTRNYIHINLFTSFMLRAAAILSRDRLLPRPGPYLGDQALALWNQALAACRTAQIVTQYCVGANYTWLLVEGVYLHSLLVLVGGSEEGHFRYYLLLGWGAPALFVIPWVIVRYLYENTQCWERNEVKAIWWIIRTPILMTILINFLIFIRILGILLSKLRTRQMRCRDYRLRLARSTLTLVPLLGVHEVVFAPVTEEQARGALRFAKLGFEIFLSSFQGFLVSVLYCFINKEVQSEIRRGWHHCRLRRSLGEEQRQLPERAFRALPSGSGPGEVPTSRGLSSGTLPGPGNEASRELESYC
Assay: FACS competition with GIP-057 on CHO-K1-hGIPR cells; pIC50 category A: >8.0

Row | Binder | pIC50
1 | B1 | > 8 pic50
2 | B2 | > 8 pic50
3 | B3 | > 8 pic50
4 | B4 | > 8 pic50
5 | B5 | > 8 pic50
6 | B6 | > 8 pic50
7 | B7 | > 8 pic50
8 | B8 | > 8 pic50
9 | B9 | > 8 pic50
10 | B10 | > 8 pic50
11 | B11 | > 8 pic50
12 | B12 | > 8 pic50
13 | B13 | > 8 pic50
14 | B14 | > 8 pic50
15 | B15 | > 8 pic50
16 | B16 | > 8 pic50
17 | B17 | > 8 pic50
